{"source": "paper PMC12394075", "about": "“Domain coupling in activation of a family C GPCR” (Nature Chemical Biology, 2024)", "proteins": {"B1": {"name": "isolated mGluR2 LBD (residues 22–502 with a Cys234Ser mutation) (domain or fragment, UniProt P31421 22-502, looked up)", "chain": "AKKVLTLEGDLVLGGLFPVHQKGGPAEECGPVNEHRGIQRLEAMLFALDRINRDPHLLPGVRLGAHILDSCSKDTHALEQALDFVRASLSRGADGSRHICPDGSYATHSDAPTAVTGVIGGSYSDVSIQVANLLRLFQIPQISYASTSAKLSDKSRYDYFARTVPPDFFQAKAMAEILRFFNWTYVSTVASEGDYGETGIEAFELEARARNISVATSEKVGRAMSRAAFEGVVRALLQKPSARVAVLFTRSEDARELLAATQRLNASFTWVASDGWGALESVVAGSERAAEGAITIELASYPISDFASYFQSLDPWNNSRNPWFREFWEERFHCSFRQRDCAAHSLRAVPFEQESKIMFVVNAVYAMAHALHNMHRALCPNTTHLCDAMRPVNGRRLYKDFVLNVKFDAPFRPADTDDEVRFDRFGDGIGRYNIFTYLRAGSGRYRYQKVGYWAEGLTLDTSFIPWASPSAGPLPASRCSE", "notes": "Rat is surmised because the same peptides are compared with the full-length rat construct; the simulations used human mGluR2; also called LBD-alone construct; LBD-only construct; source: Expi293 GNTI- cells, secreted into media, purified (anti-FLAG M2 resin, SEC)"}}, "biological_target": "the molecule itself", "assay": "SEC; Superdex 200 10/300 increase; 100 mM NaCl, 20 mM HEPES, pH 7.5"}
{"protein": "B1", "values": [{"measurement": "stoichiometry N", "value": 2}]}
